PMC11879086, “Identification and characterization of a human MORC2 DNA binding region that is required for gene silencing” (Nucleic Acids Research, 2024)

Legend:
MORC2 subset C = target: T1, MORC2 subset C (Homo sapiens, UniProt Q9Y6X9 1-1032, R754D;R755D;K756D;R758D;K760D;R761D); assay: fluorescence anisotropy; apo; FA/EMSA: 50 mM NaCl, 3 mM MgCl2, 20 mM Na-HEPES pH 7.4, 1 mM TCEP, 10% glycerol, 0.025 mM ZnCl2, 50 ug/ml BSA, room temperature; 1 nM nucleic acid (FA) or 20 nM DNA (EMSA); conditions: protein: recombinant; tags: tag removed by TEV; chain copies: 2; label: 5'-6-FAM; blunt
T1 sequence: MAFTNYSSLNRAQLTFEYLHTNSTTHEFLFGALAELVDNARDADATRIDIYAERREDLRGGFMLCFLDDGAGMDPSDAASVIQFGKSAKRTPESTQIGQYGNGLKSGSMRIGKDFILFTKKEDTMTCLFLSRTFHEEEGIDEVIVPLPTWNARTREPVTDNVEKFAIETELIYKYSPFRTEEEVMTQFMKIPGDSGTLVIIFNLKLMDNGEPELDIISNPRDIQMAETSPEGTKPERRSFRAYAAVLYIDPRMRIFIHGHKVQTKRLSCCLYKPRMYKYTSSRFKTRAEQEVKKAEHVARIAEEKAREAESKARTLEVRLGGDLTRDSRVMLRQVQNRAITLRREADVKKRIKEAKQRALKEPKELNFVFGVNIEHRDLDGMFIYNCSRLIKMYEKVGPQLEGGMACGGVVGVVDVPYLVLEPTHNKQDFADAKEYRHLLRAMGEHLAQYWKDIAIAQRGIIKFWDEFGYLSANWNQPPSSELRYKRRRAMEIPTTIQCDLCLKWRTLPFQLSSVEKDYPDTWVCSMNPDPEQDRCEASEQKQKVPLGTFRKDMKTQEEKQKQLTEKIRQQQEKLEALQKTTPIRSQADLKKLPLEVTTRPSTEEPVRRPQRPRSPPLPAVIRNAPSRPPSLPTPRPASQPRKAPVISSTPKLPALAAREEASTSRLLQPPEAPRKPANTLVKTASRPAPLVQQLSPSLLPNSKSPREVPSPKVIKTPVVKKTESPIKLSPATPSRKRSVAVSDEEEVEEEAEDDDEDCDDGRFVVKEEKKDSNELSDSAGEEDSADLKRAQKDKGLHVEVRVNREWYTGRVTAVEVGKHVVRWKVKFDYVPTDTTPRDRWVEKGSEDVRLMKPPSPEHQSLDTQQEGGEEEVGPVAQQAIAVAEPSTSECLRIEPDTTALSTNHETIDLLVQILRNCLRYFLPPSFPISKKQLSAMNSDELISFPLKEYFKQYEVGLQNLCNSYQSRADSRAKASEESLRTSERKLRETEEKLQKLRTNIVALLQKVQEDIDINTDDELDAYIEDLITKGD

[1] = target: T2, MORC2 dephosphorylated (wild-type) (Homo sapiens, UniProt Q9Y6X9 1-1032); assay: as above; conditions: protein: recombinant; tags: tag removed by TEV; chain copies: 2; label: 5'-6-FAM; blunt
T2 sequence: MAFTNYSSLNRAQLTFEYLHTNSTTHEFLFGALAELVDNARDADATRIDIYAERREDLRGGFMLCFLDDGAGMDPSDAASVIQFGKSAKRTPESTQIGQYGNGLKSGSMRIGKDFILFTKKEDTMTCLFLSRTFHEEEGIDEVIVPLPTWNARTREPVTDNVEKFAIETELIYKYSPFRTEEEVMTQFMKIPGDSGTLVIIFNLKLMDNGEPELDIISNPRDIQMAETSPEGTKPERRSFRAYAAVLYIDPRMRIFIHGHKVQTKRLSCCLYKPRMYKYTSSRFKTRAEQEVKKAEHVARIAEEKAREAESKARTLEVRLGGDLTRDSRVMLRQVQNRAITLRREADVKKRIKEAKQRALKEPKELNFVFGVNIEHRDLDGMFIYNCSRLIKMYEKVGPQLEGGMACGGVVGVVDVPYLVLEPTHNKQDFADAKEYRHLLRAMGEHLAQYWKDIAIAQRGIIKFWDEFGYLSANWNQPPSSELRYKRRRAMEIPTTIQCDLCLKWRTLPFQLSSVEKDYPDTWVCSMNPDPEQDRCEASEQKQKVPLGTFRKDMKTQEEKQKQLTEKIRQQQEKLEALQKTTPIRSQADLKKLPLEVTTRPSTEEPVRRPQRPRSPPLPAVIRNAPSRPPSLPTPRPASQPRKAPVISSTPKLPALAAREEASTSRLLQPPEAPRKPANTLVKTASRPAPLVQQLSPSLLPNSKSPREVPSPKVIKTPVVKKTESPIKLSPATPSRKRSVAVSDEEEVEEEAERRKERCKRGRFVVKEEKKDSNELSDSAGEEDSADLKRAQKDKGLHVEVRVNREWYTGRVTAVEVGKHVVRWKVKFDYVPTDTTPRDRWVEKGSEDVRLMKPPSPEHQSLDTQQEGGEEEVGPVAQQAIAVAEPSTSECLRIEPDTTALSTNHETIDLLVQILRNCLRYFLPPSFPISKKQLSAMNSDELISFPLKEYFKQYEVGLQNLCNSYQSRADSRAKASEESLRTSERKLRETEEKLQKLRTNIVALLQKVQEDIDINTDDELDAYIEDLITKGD

B1: Random 35mer dsDNA (dsDNA)
DNA 1: ATAGGGTCCATCAGAATTCGGATGAACTCGGTGTG
DNA 2: CACACCGAGTTCATCCGAATTCTGATGGACCCTAT
MORC2 subset C
  Kd: 60 ± 20 nM
[1]
  Kd: 17 ± 4 nM
